Experimental data published in patent publication CN101233156A (MEDAREX INC, dated 2008).

Biological target: T1, 人CD 19 (细胞表面上表达: Raji、Daudi、ARH-77细胞, 人CD 19转染的CHO细胞) (human, UniProt P15391 20-556)
T1 construct: CD19 on the surface of B cell tumour lines (endogenous) or of CHO cells transfected with full-length cDNA of the transmembrane form; it is not tied word for word to the cells used; also called CHO-CD 19; CD 19-CHO
T1 sequence: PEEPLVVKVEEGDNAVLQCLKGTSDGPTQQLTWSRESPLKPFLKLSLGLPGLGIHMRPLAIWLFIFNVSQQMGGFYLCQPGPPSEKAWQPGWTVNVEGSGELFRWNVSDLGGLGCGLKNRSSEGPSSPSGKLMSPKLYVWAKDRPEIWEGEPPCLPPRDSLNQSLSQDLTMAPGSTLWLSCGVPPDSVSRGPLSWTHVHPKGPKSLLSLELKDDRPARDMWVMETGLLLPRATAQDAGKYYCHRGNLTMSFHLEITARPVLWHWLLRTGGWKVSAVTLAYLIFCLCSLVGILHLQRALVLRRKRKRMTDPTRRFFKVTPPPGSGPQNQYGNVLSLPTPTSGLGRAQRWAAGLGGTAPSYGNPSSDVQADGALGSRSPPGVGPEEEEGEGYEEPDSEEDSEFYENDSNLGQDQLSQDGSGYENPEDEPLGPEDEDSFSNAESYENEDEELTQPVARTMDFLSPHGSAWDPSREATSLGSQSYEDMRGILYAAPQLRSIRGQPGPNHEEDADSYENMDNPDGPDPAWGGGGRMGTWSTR
Assay: Scatchard analysis, 125I-labelled antibody on Raji cells

B1: 抗CD 19人单克隆抗体21D4 (antibody, V domains shown)
VH: EVQLVQSGAEVKKPGESLKISCKGSGYSFSSSWIGWVRQMPGKGLEWMGIIYPDDSDTRYSPSFQGQVTISADKSIRTAYLQWSSLKASDTAMYYCARHVTMIWGVIIDFWGQGTLVTVSS
VL: AIQLTQSPSSLSASVGDRVTITCRASQGISSALAWYQQKPGKAPKLLIYDASSLESGVPSRFSGSGSGTDFTLTISSLQPEDFATYYCQQFNSYPYTFGQGTKLEIK
notes: Human monoclonal antibody from KM mouse hybridoma; also called HuMAb 21D4; HuMab 21D4
B1 was tested. Which Kd did it give?
Its Kd is roughly 2.14 nM.

B2: 抗CD 19人单克隆抗体47G4 (antibody, V domains shown)
VH: QVQLVQSGAEVKKPGSSVKVSCKDSGGTFSSYAISWVRQAPGQGLEWMGGIIPIFGTTNYAQQFQGRVTITADESTSTAYMELSSLRSEDTAVYYCAREAVAADWLDPWGQGTLVTVSS
VL: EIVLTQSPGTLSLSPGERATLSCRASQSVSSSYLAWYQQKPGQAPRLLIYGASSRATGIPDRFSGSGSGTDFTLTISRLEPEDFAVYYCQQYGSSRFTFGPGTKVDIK
notes: 125I-labelled in the Scatchard assay; also called HuMAb 47G4; CD 19 HuMab 47G4
With B2 as the binder, how does the Kd read?
Its Kd is roughly 12 nM.
